# B1: 1D4H5: IgG1 mAb of hybridoma 1D4H5, specific for GPV-M1; VH SEQ ID NO: 64, VL SEQ ID NO: 66 (antibody, V domains shown)
# VH: MYLGLNCVFIVFLLKGVQSEVKLEESGGGLVQPGGSMKLSCVASGFTFSNYWMNWVRQSPEKGLEWVAEIRLKSNNYATHYAESVKGRFTISSDDSKSSVYLQMNNLRAEDTGIYYCSTGNYWGQGTTLTVSS
# VL: MDFQMQIISLLLISVTVIVSNGEIVLTQSPTTMAASPGEKITITCSASSTISSNYLHWYQQKPGFSPKLLIYRTSNLASGVPARFSGSGSGTSYSLTIGTMEAEDVATYYCQQGSTISRTFGSGTKLEIK
# B2: 10E7E2: IgG1 mAb of hybridoma 10E7E2, specific for GPV-P3; VH SEQ ID NO: 72, VL SEQ ID NO: 74 (antibody, V domains shown)
# VH: QVQLKQSGPGLVQPSQSLSITCTVSGFSLTSYGVHWVRQSPGKGLEWLGVIWSGGTTDYNAAFISRLSISKDNSKSQVFFKMNSLQANDTAIYYCARGGHRGFAYWGQGTLVTVSA
# VL: DIVMTQSHKFMSTSVGDRVSITCKASQDVGTAVAWYQQKPGQSPKLLIYWASTRHTGVPDRFTGSGSGTDFTLTISNVQSEDLADYFCQQYSSYPLTFGAGTKLELK
# Columns and labels:
# C. tropicalis ATCC 28775 = assay: Passive transfer of mAbs, neutropenic mouse model of disseminated candidiasis by C. tropicalis; assay type: in vivo; details: for Protection against C. tropicalis / Protection against C. tropicalis (grade word): Table 6, neutropenic BALB/c mice, mAb i.p. 4 h before 1×10^7 C. tropicalis i.v.; for Protection against Candida spp in mouse model: Against C. tropicalis / Protection against Candida spp in mouse model: Against C. tropicalis (grade word): Table 9
# Description: (§1) Induction of neutropenia. Although C. albicans remains the dominant disease-causing pathogen of this genus, rates of infections caused by non-albicans Candida (NAC) species are increasing. Among these Candida species, only C. albicans is pathogenic in the normal mouse model. To test vaccine and mAbs against non-albicans Candida spp, we have developed neutropenic murine models of disseminated infection by C. glabrata, C. tropicalis, and C. parapsilosis. Before challenge, BLAB/c mice were made neutropenic by intraperitoneal receipt of a 200 mg/kg dose of cyclophosphamide (CY; Sigma-Aldrich) at day −3. The i.p. injection (150 mg/kg) is repeated every 10 days after infection (i.e., at days 10, 20, 30, and 40 post-infection) in order to maintain low neutrophil counts for the entire experimental procedure. […] To evaluate leukocytopenia in these mice, blood samples were collected from tail veins 3 days after each CY or saline injection (n=10 in each group). Total leukocyte and differential cell counts were determined on a hemocytometer and by Wright-Giemsa staining. Body weights of the mice were also measured and compared for 14 days after the first CY or saline injection (n=10 in each group).
# (§2) Fungal challenge dose and assessment ofprotection. Although C. albicans remains the dominant disease-causing pathogen of this genus, rates of infections caused by non-albicans Candida (NAC) species are increasing (18). Among these Candida species, only C. albicans is pathogenic in the normal mouse model (19,20). We have developed neutropenic murine models of disseminated infection by C. glabrata, C. tropicalis, and C. parapsilosis. […] In details, mice of different experimental groups (five mice per group) were intravenously infected with 5×10^6 viable C. parapsilosis ATCC MYA-4646 (A), 1×108 C. glabrata ATCC 2001 cells (B) and 1×107 C. tropicalis ATCC 28775 cells (C) in 0.1 ml DPBS. As controls, immunocompetent mice were challenged with the same dose of each Candida strain tested.
# Passive transfer of MAbs by intraperitoneal (i.p.) route. The preventive effect of peptide-specific mAbs listed in Table 3 and Table 4 in naïve mice was examined by passive transfer experiments. Each mAb was appropriately diluted in DPBS to give a 40,000-100,000 ELISA titer against each corresponding specific peptide coated on the plate. For testing, mice received 0.5 ml of each mAb or 1 ml of two mAbs in combination (0.5 ml of each) intraperitoneally. Table 6 and Table 7 have listed all the peptide-specific mAb combinations that have been tested, as well as the protective efficacy of each mAb cocktail as compared to single mAb treatment. The negative control materials tested in mice were single mAb or DPBS. Control mice received 0.5 ml of the DPBS diluents or single mAb treatment. For each condition, 6- to 8-week-old female BALB/c mice (NCI) were given 0.5 ml of test mAb, or 1 ml two mAb cocktails or control materials intraperitoneally, followed 4 h later by 0.1 ml intravenously of defined lethal dose of yeast cells per milliliter of DPBS. Mice were divided into groups with five mice each and three independent experiments were carried out. In some experiments, mice were given the same dose of mAbs or control materials on every other day post-challenge for two weeks, as compared to the protective efficacy of mAb in combinations. All mice were sacrificed on day 50. For animal groups that were challenged non-albicans candida species, determined optimal challenge doses were applied for each candida strain.
# The preventive effect of each universal peptide-specific mAb was examined by passive transfer experiments. Each mAb was appropriately diluted in DPBS (0.2 μg/μl) to give a 100,000 ELISA titer against each universal peptide coated on the plate. For testing, 5 mice of each tested group received 0.5 ml of each mAb intraperitoneally. The negative control materials tested in mice were mAbs absorbed with C. albicans yeast cells (3153A) and DPBS. […]
# [1] = tested on: C. parapsilosis ATCC MYA-4646; assay: Passive transfer of mAbs, neutropenic mouse model of disseminated candidiasis by C. parapsilosis; assay type: in vivo; details: Table 6; neutropenic BALB/c mice; mAb i.p. 4 h before 5×10^6 C. parapsilosis i.v.
# Description: as §1, §2
# Passive transfer of MAbs by intraperitoneal (i.p.) route. The preventive effect of peptide-specific mAbs listed in Table 3 and Table 4 in naïve mice was examined by passive transfer experiments. Each mAb was appropriately diluted in DPBS to give a 40,000-100,000 ELISA titer against each corresponding specific peptide coated on the plate. For testing, mice received 0.5 ml of each mAb or 1 ml of two mAbs in combination (0.5 ml of each) intraperitoneally. Table 6 and Table 7 have listed all the peptide-specific mAb combinations that have been tested, as well as the protective efficacy of each mAb cocktail as compared to single mAb treatment. […] For animal groups that were challenged non-albicans candida species, determined optimal challenge doses were applied for each candida strain. […]
Molecule,Protection against C. tropicalis (C. tropicalis ATCC 28775),Protection against C. tropicalis (grade word) (C. tropicalis ATCC 28775),Protection against Candida spp in mouse model: Against C. tropicalis (C. tropicalis ATCC 28775),Protection against Candida spp in mouse model: Against C. tropicalis (grade word) (C. tropicalis ATCC 28775),Protection against C. parapsilosis [1],Protection against C. parapsilosis (grade word) [1]
B1,(60-80%),High,(60-80%),High,(70-80%),High
B2,(60-70%),High,(60-70%),High,(60-80%),High

# Source: patent publication US11707511B2, “Vaccine compositions and methods of using the same” (The Board of Supervisors of Louisiana State University and …, priority 2017, dated 2023)
